According to patent US20220306744A1 (CRESCENDO BIOLOGICS, published 2022):
Changes are numbered by the printed parent chain.

B1: 1.70a (VHH)
VHH: EVQLVESGGGVVRPGGSLRLSCAASGFTFDDYAVSWVRQAPGKGLEWVSGITWNGGSTGYADSVKGRFTISRDNAKNSLYLQMNSLRAEDTALYYCVRDKYSYAWSYDGFDIWGQGTMVTVSS
B2: 1.75a (VHH)
VHH: B1 VHH with V34M, G55Q, G66D, G109D
B3: 1.86a (VHH)
VHH: B1 VHH with V34S, G66D
B4: 1.74a (VHH)
VHH: B1 VHH with V34M, G55S, G66D, G109D
B5: 1.78a (VHH)
VHH: B1 VHH with V34M, G109V
B6: 1.84a (VHH)
VHH: B1 VHH with V34N, G66D
B7: 1.83a (VHH)
VHH: B1 VHH with V34T, G66D
B8: 1.91a (VHH)
VHH: B1 VHH with V34R, G66D
B9: 1.79a (VHH)
VHH: B1 VHH with V34M, G109D
B10: 1.71a (VHH)
VHH: B1 VHH with V34L
B11: 1.82a (VHH)
VHH: B1 VHH with V34I, G66D
B12: 1.87a (VHH)
VHH: B1 VHH with V34L, G66D
B13: 1.90a (VHH)
VHH: B1 VHH with V34W, G66D
B14: 1.77a (VHH)
VHH: B1 VHH with V34M, G55A, G66D, G109D
B15: 1.89a (VHH)
VHH: B1 VHH with V34E, G66D
B16: 1.92a (VHH)
VHH: B1 VHH with V34F, G66D
B17: 1.76a (VHH)
VHH: B1 VHH with V34M, G55H, G66D, G109V
B18: 1.73a (VHH)
VHH: B1 VHH with V34R
B19: 1.85a (VHH)
VHH: B1 VHH with V34D, G66D
B20: 1.80a (VHH)
VHH: B1 VHH with V34M, G55K, G66D, G109D
B21: 1.72a (VHH)
VHH: B1 VHH with V34S
B22: 1.88a (VHH)
VHH: B1 VHH with V34G, G66D
B23: 1.81a (VHH)
VHH: B1 VHH with V34M, G55R, G66D, G109D

Target: T1, human PD-1 expressed on cells (CHO TREX human PD1 cell line, full-length human PD-1 sequence) (human, UniProt Q15116 21-288)
T1 construct: Also used for human PD-1 on Jurkat reporter cells, on PathHunter cells and on PHA-stimulated human CD4+ T cells; also called CHO human PD1 cells; CHO human PD-1 cells
T1 sequence (Q15116 21-288): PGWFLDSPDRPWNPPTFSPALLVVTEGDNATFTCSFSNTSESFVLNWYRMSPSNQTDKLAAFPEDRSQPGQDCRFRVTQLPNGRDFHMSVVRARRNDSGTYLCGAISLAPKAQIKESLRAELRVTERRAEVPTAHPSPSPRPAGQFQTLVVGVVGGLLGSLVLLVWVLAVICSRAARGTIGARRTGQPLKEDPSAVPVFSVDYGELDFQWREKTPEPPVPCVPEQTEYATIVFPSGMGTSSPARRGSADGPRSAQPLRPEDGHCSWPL
Assay: worded summary of the screens

Row | binding result | Binder
1 | binds | B1
2 | binds | B2
3 | binds | B3
4 | binds | B4
5 | binds | B5
6 | binds | B6
7 | binds | B7
8 | binds | B8
9 | binds | B9
10 | binds | B10
11 | binds | B11
12 | binds | B12
13 | binds | B13
14 | binds | B14
15 | binds | B15
16 | binds | B16
17 | binds | B17
18 | binds | B18
19 | binds | B19
20 | binds | B20
21 | binds | B21
22 | binds | B22
23 | binds | B23
